# Source: patent publication US20240270821A1, “GIP/GLP1/GCG TRI-RECEPTOR AGONISTS AND USES THEREOF” (priority 2023, published 2024)
# T1: human GIP receptor (human) (UniProt P48546)
# T1 sequence (looked up): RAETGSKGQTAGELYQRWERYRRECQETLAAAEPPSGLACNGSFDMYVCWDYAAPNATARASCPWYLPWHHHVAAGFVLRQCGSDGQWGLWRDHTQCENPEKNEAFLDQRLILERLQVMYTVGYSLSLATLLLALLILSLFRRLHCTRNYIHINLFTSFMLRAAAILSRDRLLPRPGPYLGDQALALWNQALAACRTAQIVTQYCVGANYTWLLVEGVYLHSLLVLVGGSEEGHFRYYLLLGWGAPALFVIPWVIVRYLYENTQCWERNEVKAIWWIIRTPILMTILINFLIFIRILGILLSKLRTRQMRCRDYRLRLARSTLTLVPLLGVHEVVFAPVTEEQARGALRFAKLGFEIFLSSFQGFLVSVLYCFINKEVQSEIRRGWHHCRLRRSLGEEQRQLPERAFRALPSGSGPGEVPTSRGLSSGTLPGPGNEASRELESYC
# Experiments:
# Test in all cases: cell-based or functional assay
# hGLP-1R = hGLP-1R (Homo sapiens, UniProt P43220)
# [1] = target: T1, human GIP receptor (human)
# [2] = target: human glucagon receptor (human) (UniProt P47871)
# Chain of human glucagon receptor (human) (P47871 26-477): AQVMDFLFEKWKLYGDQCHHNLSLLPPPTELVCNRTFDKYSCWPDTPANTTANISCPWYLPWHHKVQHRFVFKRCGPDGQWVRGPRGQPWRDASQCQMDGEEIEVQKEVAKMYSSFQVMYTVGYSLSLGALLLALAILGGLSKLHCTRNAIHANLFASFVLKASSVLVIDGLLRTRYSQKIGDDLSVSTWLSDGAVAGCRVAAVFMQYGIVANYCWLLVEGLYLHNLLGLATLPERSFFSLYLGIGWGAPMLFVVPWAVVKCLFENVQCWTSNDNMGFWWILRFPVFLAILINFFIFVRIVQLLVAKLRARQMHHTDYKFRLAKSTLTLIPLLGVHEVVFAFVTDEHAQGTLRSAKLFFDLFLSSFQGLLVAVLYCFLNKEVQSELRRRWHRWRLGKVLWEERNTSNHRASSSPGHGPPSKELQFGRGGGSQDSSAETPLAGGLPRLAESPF
# Chain of hGLP-1R (P43220 24-463): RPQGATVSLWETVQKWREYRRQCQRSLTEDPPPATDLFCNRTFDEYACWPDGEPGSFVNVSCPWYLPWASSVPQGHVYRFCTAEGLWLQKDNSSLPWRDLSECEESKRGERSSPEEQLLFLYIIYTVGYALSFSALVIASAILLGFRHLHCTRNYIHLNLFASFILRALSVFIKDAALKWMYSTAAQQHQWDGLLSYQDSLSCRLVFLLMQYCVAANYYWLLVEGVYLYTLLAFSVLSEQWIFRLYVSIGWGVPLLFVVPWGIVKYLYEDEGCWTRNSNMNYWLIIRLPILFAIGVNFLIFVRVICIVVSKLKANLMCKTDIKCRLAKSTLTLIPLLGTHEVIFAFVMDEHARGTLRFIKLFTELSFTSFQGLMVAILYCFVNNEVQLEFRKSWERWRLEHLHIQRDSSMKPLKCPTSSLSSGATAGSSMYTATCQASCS
binder,measurement,setting,value
YXQGTFTSDXSKXLDKKAQXAFIEYLIEXGPSSGAPPPSGS (non-natural residues; (γGlu)2-C18 diacid on Lys; C-terminal amide; synthetic construct; SITE 2: note = 2-Aminoisobutyric Acid; SITE 10: note = 3-(4-Pyridyl)-L-alanine; SITE 13: note = alpha-methyl-leucine; SITE 17: note = Lysine is chemically modified through conjugation of the epsilon-amino group of the Lysine side chain with (gamma-Glu)2-CO-(CH2)16-CO2H; SITE 20:) [Example 907],Relative cAMP EC50,hGLP-1R,1.15 nM
same,cAMP Rel EC50 (1% HSA),hGLP-1R,123 nM
same,Relative cAMP EC50,[1],0.103 nM
same,cAMP Rel EC50 (1% HSA),[1],8.86 nM
same,Relative cAMP EC50,[2],5.79 nM
same,cAMP Rel EC50 (1% HSA),[2],1210 nM
YXQGTFTSDXSKXLDKKAQXAFIEYLIEGGPSSGAPPPSGS (non-natural residues; lipidated Lys AEEA-γGlu-C18 diacid; C-term amide; synthetic construct; SITE 2: note = 2-Aminoisobutyric Acid; SITE 10: note = 3-(4-Pyridyl)-L-alanine; SITE 13: note = alpha-methyl-leucine; SITE 17: note = Lysine is chemically modified through conjugation of the epsilon-amino group of the Lysine side chain with (2-[2-(2-Amino-ethoxy)-ethoxy]-acetyl)) [Example 908],Relative cAMP EC50,hGLP-1R,1.2 nM
same,cAMP Rel EC50 (1% HSA),hGLP-1R,174 nM
same,Relative cAMP EC50,[1],0.246 nM
same,cAMP Rel EC50 (1% HSA),[1],26.7 nM
same,Relative cAMP EC50,[2],8.11 nM
same,cAMP Rel EC50 (1% HSA),[2],980 nM
YXQGTFTSDXSRXLDKKAQXAFIEXLLEGGPSSGAPPPSGS (non-natural residues; lipidated Lys; C-terminal amide; synthetic construct; SITE 2: note = 2-Aminoisobutyric Acid; SITE 10: note = 3-(4-Pyridyl)-L-alanine; SITE 13: note = alpha-methyl-leucine; SITE 17: note = Lysine is chemically modified through conjugation of the epsilon-amino group of the Lysine side chain with (2-[2-(2-Amino-ethoxy)-ethoxy]-acetyl)) [Example 909],Relative cAMP EC50,hGLP-1R,1.72 nM
same,cAMP Rel EC50 (1% HSA),hGLP-1R,243 nM
same,Relative cAMP EC50,[1],0.121 nM
same,cAMP Rel EC50 (1% HSA),[1],20.2 nM
same,Relative cAMP EC50,[2],6.82 nM
same,cAMP Rel EC50 (1% HSA),[2],1740 nM
YXQGTFTSDXSQXLDKKAQXAFIEXLLEGGPSSGAPPPSGS (non-natural residues; lipidated Lys; C-terminal amide; synthetic construct; SITE 2: note = 2-Aminoisobutyric Acid; SITE 10: note = 3-(4-Pyridyl)-L-alanine; SITE 13: note = alpha-methyl-leucine; SITE 17: note = Lysine is chemically modified through conjugation of the epsilon-amino group of the Lysine side chain with (2-[2-(2-Amino-ethoxy)-ethoxy]-acetyl)) [Example 910],Relative cAMP EC50,hGLP-1R,1.49 nM
same,cAMP Rel EC50 (1% HSA),hGLP-1R,239 nM
same,Relative cAMP EC50,[1],0.111 nM
same,cAMP Rel EC50 (1% HSA),[1],25.7 nM
same,Relative cAMP EC50,[2],9.76 nM
same,cAMP Rel EC50 (1% HSA),[2],2640 nM
YXQGTFTSDXSQXLDXKAQXAFIEXLLEGGPSSGAPPPSGS (acylated Lys AEEA-γGlu-C18 diacid; non-natural residues; C-terminal amide; synthetic construct; SITE 2: note = 2-Aminoisobutyric Acid; SITE 10: note = 3-(4-Pyridyl)-L-alanine; SITE 13: note = alpha-methyl-leucine; SITE 16: note = L-ornithine; SITE 17: note = Lysine is chemically modified through conjugation of the epsilon-amino group of the Lysine side chain with (2-[2-(2-) [Example 911],cAMP Rel EC50 (1% HSA),hGLP-1R,255 nM
same,cAMP Rel EC50 (1% HSA),[1],26.6 nM
same,cAMP Rel EC50 (1% HSA),[2],2390 nM
"YXQGTFTSDFSKXLDKKAQXAFIEXLIEXGPSSGAPPPSGS (non-natural residues, AEEA-γGlu-C18 diacid lysine acylation, C-terminal amide; synthetic construct; SITE 2: note = 2-Aminoisobutyric Acid; SITE 13: note = alpha-methyl-leucine; SITE 17: note = Lysine is chemically modified through conjugation of the epsilon-amino group of the Lysine side chain with (2-[2-(2-Amino-ethoxy)-ethoxy]-acetyl)-(gamma-Glu)-CO-(CH2) 16-CO2H; SITE 20: n) [Example 912]",cAMP Rel EC50 (1% HSA),hGLP-1R,59.6 nM
same,cAMP Rel EC50 (1% HSA),[1],6.15 nM
same,cAMP Rel EC50 (1% HSA),[2],955 nM
YXQGTFTSDFSQXLDKKAQXAFIEXLIEXGPSSGAPPPSGS (non-natural residues; acylated Lys C18 diacid; C-term amide; synthetic construct; SITE 2: note = 2-Aminoisobutyric Acid; SITE 13: note = alpha-methyl-leucine; SITE 17: note = Lysine is chemically modified through conjugation of the epsilon-amino group of the Lysine side chain with (2-[2-(2-Amino-ethoxy)-ethoxy]-acetyl)-(gamma-Glu)-CO-(CH2) 16-CO2H; SITE 20: n) [Example 913],cAMP Rel EC50 (1% HSA),hGLP-1R,258 nM
same,cAMP Rel EC50 (1% HSA),[1],5.62 nM
same,cAMP Rel EC50 (1% HSA),[2],1140 nM
"YXQGTFTSDXSKXLDKKAQXAFIEXLIEXGPSSGAPPPSGS (Aib, 4Pal, αMeL, Me4Pal; acylated Lys; C-terminal amide; synthetic construct; SITE 2: note = 2-Aminoisobutyric Acid; SITE 10: note = 3-(4-Pyridyl)-L-alanine; SITE 13: note = alpha-methyl-leucine; SITE 17: note = Lysine is chemically modified through conjugation of the epsilon-amino group of the Lysine side chain with (2-[2-(2-Amino-ethoxy)-ethoxy]-acetyl)) [Example 914]",cAMP Rel EC50 (1% HSA),hGLP-1R,91.7 nM
same,cAMP Rel EC50 (1% HSA),[1],5.94 nM
same,cAMP Rel EC50 (1% HSA),[2],983 nM
"YXQGTFTSDXSKXLDKKAQXAFIEYLIEXGPSSGAPPPSGS (non-natural residues, acylated Lys, C-terminal amide; synthetic construct; SITE 2: note = 2-Aminoisobutyric Acid; SITE 10: note = 3-(4-Pyridyl)-L-alanine; SITE 13: note = alpha-methyl-leucine; SITE 17: note = Lysine is chemically modified through conjugation of the epsilon-amino group of the Lysine side chain with (2-[2-(2-Amino-ethoxy)-ethoxy]-acetyl)) [Example 915]",cAMP Rel EC50 (1% HSA),hGLP-1R,226 nM
same,cAMP Rel EC50 (1% HSA),[1],15.3 nM
same,cAMP Rel EC50 (1% HSA),[2],174 nM
"YXQGTFTSDXSKXLDKKAQXAFIEXLIEXGPSSGAPPPSGS (Aib, 4Pal, αMeL, Me4Pal; lysine acylated C18 diacid; amide; synthetic construct; SITE 2: note = 2-Aminoisobutyric Acid; SITE 10: note = 3-(4-Pyridyl)-L-alanine; SITE 13: note = alpha-methyl-leucine; SITE 17: note = Lysine is chemically modified through conjugation of the epsilon-amino group of the Lysine side chain with (2-[2-(2-Amino-ethoxy)-ethoxy]-acetyl)) [Example 916]",cAMP Rel EC50 (1% HSA),hGLP-1R,166 nM
same,cAMP Rel EC50 (1% HSA),[1],4.78 nM
same,cAMP Rel EC50 (1% HSA),[2],158 nM
YXQGTFTSDXSQXLDKKAQXAFIEYLIEXGPSSGAPPPSEG (non-natural residues; lipidated Lys AEEA-γGlu-C18 diacid; synthetic construct; SITE 2: note = 2-Aminoisobutyric Acid; SITE 10: note = 3-(4-Pyridyl)-L-alanine; SITE 13: note = alpha-methyl-leucine; SITE 17: note = Lysine is chemically modified through conjugation of the epsilon-amino group of the Lysine side chain with (2-[2-(2-Amino-ethoxy)-ethoxy]-acetyl)) [Example 918],cAMP Rel EC50 (1% HSA),hGLP-1R,484 nM
same,cAMP Rel EC50 (1% HSA),[1],18 nM
same,cAMP Rel EC50 (1% HSA),[2],590 nM
YXQGTFTSDXSQXLDKKAQXAFIEYLIEXGPSSGAPPPSEE (non-natural residues; lipidated Lys; D-Glu; synthetic construct; SITE 2: note = 2-Aminoisobutyric Acid; SITE 10: note = 3-(4-Pyridyl)-L-alanine; SITE 13: note = alpha-methyl-leucine; SITE 17: note = Lysine is chemically modified through conjugation of the epsilon-amino group of the Lysine side chain with (2-[2-(2-Amino-ethoxy)-ethoxy]-acetyl)) [Example 919],cAMP Rel EC50 (1% HSA),hGLP-1R,454 nM
same,cAMP Rel EC50 (1% HSA),[1],25.8 nM
same,cAMP Rel EC50 (1% HSA),[2],467 nM
YXQGTFTSDXSQXLDKKAQXAFIEYLIEXGPSSGAPPPSGS (non-natural residues; C18 diacid-γGlu-e on Lys; C-terminal amide; synthetic construct; SITE 2: note = 2-Aminoisobutyric Acid; SITE 10: note = 3-(4-Pyridyl)-L-alanine; SITE 13: note = alpha-methyl-leucine; SITE 17: note = Lysine is chemically modified through conjugation of the epsilon-amino group of the Lysine side chain with D-Glutamic acid-(gamma-Glu)-CO-(CH2)16) [Example 920],cAMP Rel EC50 (1% HSA),hGLP-1R,322 nM
same,cAMP Rel EC50 (1% HSA),[1],9.05 nM
same,cAMP Rel EC50 (1% HSA),[2],1090 nM
"YXQGTFTSDXSQXLDKKAQXAFIEYLIEXGPSSGAPPPSGS (Aib, 4Pal, αMeL, Me4Pal; acylated Lys; C-terminal amide; synthetic construct; SITE 2: note = 2-Aminoisobutyric Acid; SITE 10: note = 3-(4-Pyridyl)-L-alanine; SITE 13: note = alpha-methyl-leucine; SITE 17: note = Lysine is chemically modified through conjugation of the epsilon-amino group of the Lysine side chain with (D-Glutamic acid)2-(gamma-Glu)-CO-(CH2)) [Example 921]",cAMP Rel EC50 (1% HSA),hGLP-1R,261 nM
same,cAMP Rel EC50 (1% HSA),[1],12.4 nM
same,cAMP Rel EC50 (1% HSA),[2],2130 nM
YXQGTFTSDXSQXLDKKAQXAFIEYLIEXGPSSGAPPPSGS (Lys acylated γGlu-C18 diacid; non-natural residues; C-amide; synthetic construct; SITE 2: note = 2-Aminoisobutyric Acid; SITE 10: note = 3-(4-Pyridyl)-L-alanine; SITE 13: note = alpha-methyl-leucine; SITE 17: note = Lysine is chemically modified through conjugation of the epsilon-amino group of the Lysine side chain with (gamma-Glu)-(D-Glutamic acid)2-CO-(CH2)) [Example 922],cAMP Rel EC50 (1% HSA),hGLP-1R,357 nM
same,cAMP Rel EC50 (1% HSA),[1],6.39 nM
same,cAMP Rel EC50 (1% HSA),[2],1170 nM
YXQGTFTSDXSQXLDKKAQXAFIEYLIEXGPSSGAPPPSGS (non-natural residues; C18 diacid-e-γGlu-e on Lys; C-terminal amide; synthetic construct; SITE 2: note = 2-Aminoisobutyric Acid; SITE 10: note = 3-(4-Pyridyl)-L-alanine; SITE 13: note = alpha-methyl-leucine; SITE 17: note = Lysine is chemically modified through conjugation of the epsilon-amino group of the Lysine side chain with D-Glutamic acid-(gamma-Glu)-D-Glutamic) [Example 923],cAMP Rel EC50 (1% HSA),hGLP-1R,870 nM
same,cAMP Rel EC50 (1% HSA),[1],18.5 nM
same,cAMP Rel EC50 (1% HSA),[2],1840 nM
YXQGTFTSDXSQXLDKKAQXAFIEYLIEXGPSSGAPPPSGSE (C-terminal amide; lysine acylated with γ-Glu-C18 diacid; synthetic construct; SITE 2: note = 2-Aminoisobutyric Acid; SITE 10: note = 3-(4-Pyridyl)-L-alanine; SITE 13: note = alpha-methyl-leucine; SITE 17: note = Lysine is chemically modified through conjugation of the epsilon-amino group of the Lysine side chain with D-Glutamic acid-(gamma-Glu)-CO-(CH2)16) [Example 924],cAMP Rel EC50 (1% HSA),hGLP-1R,402 nM
same,cAMP Rel EC50 (1% HSA),[1],15.7 nM
same,cAMP Rel EC50 (1% HSA),[2],910 nM
